Assay results: publication PMC4773810, “Novel small molecules targeting ciliary transport of Smoothened and oncogenic Hedgehog pathway activation” (Scientific Reports, 2016)

T1: human GPRASP2 (G protein-coupled receptor associated sorting protein 2), full length (human, UniProt Q96D09 1-838)
T1 construct: G protein-coupled receptor associated sorting protein 2 (GPRASP2), human, full length; also called hGPRASP2; full-length hGPRASP2; source: E. coli Rosetta2 (DE3), purified (IMAC, TEV protease, second IMAC, size exclusion chromatography)
T1 sequence (looked up): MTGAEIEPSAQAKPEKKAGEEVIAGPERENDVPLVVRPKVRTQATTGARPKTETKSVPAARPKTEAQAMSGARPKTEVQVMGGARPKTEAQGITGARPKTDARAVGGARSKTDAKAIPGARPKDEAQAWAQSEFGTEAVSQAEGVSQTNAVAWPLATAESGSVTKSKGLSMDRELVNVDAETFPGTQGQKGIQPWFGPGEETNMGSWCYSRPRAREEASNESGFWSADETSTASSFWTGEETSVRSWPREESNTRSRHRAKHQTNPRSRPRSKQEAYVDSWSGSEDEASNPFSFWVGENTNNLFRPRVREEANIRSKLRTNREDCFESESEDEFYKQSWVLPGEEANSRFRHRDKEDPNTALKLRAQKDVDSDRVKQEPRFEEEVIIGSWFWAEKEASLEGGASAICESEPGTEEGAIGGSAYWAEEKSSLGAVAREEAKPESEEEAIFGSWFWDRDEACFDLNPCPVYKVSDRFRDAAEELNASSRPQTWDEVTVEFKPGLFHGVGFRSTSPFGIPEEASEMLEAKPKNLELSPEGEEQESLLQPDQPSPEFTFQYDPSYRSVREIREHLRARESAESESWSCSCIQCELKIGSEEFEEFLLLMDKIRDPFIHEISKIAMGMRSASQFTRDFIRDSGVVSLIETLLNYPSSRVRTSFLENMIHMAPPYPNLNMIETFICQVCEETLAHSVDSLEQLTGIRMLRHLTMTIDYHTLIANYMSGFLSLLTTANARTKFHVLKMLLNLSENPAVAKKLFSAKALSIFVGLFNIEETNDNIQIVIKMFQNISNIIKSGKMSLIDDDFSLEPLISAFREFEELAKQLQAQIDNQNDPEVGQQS

B1: hSMOM2 (aa533-552-W535L) peptide (peptide, UniProt Q99835 533-552, looked up)
peptide: STLVWTKATLLIWRRTWCRL
notes: also called hSMOM2 peptide; peptide from human SMOM2; source: synthetic peptide (PSL GmbH)

molecular target: T1, human GPRASP2 (G protein-coupled …); test: NMR titration; 1D 1H NMR (…) of 100 uM peptide before and after addition of hGPRASP2 to 0.78 uM; 600 MHz, 298 K; 50 mM sodium phosphate pH 8, 50 mM NaCl, 0.002% NaN3, 100 uM DTT, 90% H2O/10% D2O; details: both partners purified

binding result	Binder
binds	B1
binds	KATLLIWRRTWCRL (peptide, UniProt Q99835 539-552, looked up, source: synthetic peptide (PSL GmbH)) [hSMO-WT (aa539-552) peptide]
binds	STWVWTKATLLIWRRTWCRL (peptide, UniProt Q99835 533-552, looked up, source: synthetic peptide (PSL GmbH)) [hSMO-WT (aa533-552) peptide]
